According to IntAct's records for PubMed 18769030:

B1: Solute carrier family 12 member 5 (Rattus norvegicus (Rat)), Q63633 (parent)
chain: MSRRFTVTSLPPAASAASADPESRRHSVADPRRLPREDVKGDGNPKESSPFINSTDTEKGREYDGRNMALFEEEMDTSPMVSSLLSGLANYTNLPQGSKEHEEAENNEGGKKKPVQAPRMGTFMGVYLPCLQNIFGVILFLRLTWVVGIAGIMESFCMVFICCSCTMLTAISMSAIATNGVVPAGGSYYMISRSLGPEFGGAVGLCFYLGTTFAGAMYILGTIEILLAYLFPAMAIFKAEDASGEAAAMLNNMRVYGTCVLTCMATVVFVGVKYVNKFALVFLGCVILSILAIYAGVIKSAFDPPNFPICLLGNRTLSRHGFDVCAKLAWEGNETVTTRLWGLFCSSRLLNATCDEYFTRNNVTEIQGIPGAASGLIKENLWSSYLTKGVIVERRGMPSVGLADGTPVDMDHPYVFSDMTSYFTLLVGIYFPSVTGIMAGSNRSGDLRDAQKSIPTGTILAIATTSAVYISSVVLFGACIEGVVLRDKFGEAVNGNLVVGTLAWPSPWVIVIGSFFSTCGAGLQSLTGAPRLLQAISRDGIVPFLQVFGHGKANGEPTWALLLTACICEIGILIASLDEVAPILSMFFLMCYMFVNLACAVQTLLRTPNWRPRFRYYHWTLSFLGMSLCLALMFICSWYYALVAMLIAGLIYKYIEYRGAEKEWGDGIRGLSLSAARYALLRLEEGPPHTKNWRPQLLVLVRVDQDQNVVHPQLLSLTSQLKAGKGLTIVGSVLEGTFLDNHPQAQRAEESIRRLMEAEKVKGFCQVVISSNLRDGVSHLIQSGGLGGLQHNTVLVGWPRNWRQKEDHQTWRNFIELVRETTAGHLALLVTKNVSMFPGNPERFSEGSIDVWWIVHDGGMLMLLPFLLRHHKVWRKCKMRIFTVAQMDDNSIQMKKDLTTFLYHLRITAEVEVVEMHESDISAYTYEKTLVMEQRSQILKQMHLTKNEREREIQSITDESRGSIRRKNPANTRLRLNVPEETACDNEEKPEEEVQLIHDQSAPSCPSSSPSPGEEPEGEGETDPEKVHLTWTKDKSAAQKNKGPSPVSSEGIKDFFSMKPEWENLNQSNVRRMHTAVRLNEVIVNKSRDAKLVLLNMPGPPRNRNGDENYMEFLEVLTEQLDRVMLVRGGGREVITIYS

Variants of: B1
Conditions: with mycb2_mouse Mycbp2, Q7TPH6
mycb2_mouse Mycbp2, Q7TPH6, sequence (Q7TPH6 whole entry): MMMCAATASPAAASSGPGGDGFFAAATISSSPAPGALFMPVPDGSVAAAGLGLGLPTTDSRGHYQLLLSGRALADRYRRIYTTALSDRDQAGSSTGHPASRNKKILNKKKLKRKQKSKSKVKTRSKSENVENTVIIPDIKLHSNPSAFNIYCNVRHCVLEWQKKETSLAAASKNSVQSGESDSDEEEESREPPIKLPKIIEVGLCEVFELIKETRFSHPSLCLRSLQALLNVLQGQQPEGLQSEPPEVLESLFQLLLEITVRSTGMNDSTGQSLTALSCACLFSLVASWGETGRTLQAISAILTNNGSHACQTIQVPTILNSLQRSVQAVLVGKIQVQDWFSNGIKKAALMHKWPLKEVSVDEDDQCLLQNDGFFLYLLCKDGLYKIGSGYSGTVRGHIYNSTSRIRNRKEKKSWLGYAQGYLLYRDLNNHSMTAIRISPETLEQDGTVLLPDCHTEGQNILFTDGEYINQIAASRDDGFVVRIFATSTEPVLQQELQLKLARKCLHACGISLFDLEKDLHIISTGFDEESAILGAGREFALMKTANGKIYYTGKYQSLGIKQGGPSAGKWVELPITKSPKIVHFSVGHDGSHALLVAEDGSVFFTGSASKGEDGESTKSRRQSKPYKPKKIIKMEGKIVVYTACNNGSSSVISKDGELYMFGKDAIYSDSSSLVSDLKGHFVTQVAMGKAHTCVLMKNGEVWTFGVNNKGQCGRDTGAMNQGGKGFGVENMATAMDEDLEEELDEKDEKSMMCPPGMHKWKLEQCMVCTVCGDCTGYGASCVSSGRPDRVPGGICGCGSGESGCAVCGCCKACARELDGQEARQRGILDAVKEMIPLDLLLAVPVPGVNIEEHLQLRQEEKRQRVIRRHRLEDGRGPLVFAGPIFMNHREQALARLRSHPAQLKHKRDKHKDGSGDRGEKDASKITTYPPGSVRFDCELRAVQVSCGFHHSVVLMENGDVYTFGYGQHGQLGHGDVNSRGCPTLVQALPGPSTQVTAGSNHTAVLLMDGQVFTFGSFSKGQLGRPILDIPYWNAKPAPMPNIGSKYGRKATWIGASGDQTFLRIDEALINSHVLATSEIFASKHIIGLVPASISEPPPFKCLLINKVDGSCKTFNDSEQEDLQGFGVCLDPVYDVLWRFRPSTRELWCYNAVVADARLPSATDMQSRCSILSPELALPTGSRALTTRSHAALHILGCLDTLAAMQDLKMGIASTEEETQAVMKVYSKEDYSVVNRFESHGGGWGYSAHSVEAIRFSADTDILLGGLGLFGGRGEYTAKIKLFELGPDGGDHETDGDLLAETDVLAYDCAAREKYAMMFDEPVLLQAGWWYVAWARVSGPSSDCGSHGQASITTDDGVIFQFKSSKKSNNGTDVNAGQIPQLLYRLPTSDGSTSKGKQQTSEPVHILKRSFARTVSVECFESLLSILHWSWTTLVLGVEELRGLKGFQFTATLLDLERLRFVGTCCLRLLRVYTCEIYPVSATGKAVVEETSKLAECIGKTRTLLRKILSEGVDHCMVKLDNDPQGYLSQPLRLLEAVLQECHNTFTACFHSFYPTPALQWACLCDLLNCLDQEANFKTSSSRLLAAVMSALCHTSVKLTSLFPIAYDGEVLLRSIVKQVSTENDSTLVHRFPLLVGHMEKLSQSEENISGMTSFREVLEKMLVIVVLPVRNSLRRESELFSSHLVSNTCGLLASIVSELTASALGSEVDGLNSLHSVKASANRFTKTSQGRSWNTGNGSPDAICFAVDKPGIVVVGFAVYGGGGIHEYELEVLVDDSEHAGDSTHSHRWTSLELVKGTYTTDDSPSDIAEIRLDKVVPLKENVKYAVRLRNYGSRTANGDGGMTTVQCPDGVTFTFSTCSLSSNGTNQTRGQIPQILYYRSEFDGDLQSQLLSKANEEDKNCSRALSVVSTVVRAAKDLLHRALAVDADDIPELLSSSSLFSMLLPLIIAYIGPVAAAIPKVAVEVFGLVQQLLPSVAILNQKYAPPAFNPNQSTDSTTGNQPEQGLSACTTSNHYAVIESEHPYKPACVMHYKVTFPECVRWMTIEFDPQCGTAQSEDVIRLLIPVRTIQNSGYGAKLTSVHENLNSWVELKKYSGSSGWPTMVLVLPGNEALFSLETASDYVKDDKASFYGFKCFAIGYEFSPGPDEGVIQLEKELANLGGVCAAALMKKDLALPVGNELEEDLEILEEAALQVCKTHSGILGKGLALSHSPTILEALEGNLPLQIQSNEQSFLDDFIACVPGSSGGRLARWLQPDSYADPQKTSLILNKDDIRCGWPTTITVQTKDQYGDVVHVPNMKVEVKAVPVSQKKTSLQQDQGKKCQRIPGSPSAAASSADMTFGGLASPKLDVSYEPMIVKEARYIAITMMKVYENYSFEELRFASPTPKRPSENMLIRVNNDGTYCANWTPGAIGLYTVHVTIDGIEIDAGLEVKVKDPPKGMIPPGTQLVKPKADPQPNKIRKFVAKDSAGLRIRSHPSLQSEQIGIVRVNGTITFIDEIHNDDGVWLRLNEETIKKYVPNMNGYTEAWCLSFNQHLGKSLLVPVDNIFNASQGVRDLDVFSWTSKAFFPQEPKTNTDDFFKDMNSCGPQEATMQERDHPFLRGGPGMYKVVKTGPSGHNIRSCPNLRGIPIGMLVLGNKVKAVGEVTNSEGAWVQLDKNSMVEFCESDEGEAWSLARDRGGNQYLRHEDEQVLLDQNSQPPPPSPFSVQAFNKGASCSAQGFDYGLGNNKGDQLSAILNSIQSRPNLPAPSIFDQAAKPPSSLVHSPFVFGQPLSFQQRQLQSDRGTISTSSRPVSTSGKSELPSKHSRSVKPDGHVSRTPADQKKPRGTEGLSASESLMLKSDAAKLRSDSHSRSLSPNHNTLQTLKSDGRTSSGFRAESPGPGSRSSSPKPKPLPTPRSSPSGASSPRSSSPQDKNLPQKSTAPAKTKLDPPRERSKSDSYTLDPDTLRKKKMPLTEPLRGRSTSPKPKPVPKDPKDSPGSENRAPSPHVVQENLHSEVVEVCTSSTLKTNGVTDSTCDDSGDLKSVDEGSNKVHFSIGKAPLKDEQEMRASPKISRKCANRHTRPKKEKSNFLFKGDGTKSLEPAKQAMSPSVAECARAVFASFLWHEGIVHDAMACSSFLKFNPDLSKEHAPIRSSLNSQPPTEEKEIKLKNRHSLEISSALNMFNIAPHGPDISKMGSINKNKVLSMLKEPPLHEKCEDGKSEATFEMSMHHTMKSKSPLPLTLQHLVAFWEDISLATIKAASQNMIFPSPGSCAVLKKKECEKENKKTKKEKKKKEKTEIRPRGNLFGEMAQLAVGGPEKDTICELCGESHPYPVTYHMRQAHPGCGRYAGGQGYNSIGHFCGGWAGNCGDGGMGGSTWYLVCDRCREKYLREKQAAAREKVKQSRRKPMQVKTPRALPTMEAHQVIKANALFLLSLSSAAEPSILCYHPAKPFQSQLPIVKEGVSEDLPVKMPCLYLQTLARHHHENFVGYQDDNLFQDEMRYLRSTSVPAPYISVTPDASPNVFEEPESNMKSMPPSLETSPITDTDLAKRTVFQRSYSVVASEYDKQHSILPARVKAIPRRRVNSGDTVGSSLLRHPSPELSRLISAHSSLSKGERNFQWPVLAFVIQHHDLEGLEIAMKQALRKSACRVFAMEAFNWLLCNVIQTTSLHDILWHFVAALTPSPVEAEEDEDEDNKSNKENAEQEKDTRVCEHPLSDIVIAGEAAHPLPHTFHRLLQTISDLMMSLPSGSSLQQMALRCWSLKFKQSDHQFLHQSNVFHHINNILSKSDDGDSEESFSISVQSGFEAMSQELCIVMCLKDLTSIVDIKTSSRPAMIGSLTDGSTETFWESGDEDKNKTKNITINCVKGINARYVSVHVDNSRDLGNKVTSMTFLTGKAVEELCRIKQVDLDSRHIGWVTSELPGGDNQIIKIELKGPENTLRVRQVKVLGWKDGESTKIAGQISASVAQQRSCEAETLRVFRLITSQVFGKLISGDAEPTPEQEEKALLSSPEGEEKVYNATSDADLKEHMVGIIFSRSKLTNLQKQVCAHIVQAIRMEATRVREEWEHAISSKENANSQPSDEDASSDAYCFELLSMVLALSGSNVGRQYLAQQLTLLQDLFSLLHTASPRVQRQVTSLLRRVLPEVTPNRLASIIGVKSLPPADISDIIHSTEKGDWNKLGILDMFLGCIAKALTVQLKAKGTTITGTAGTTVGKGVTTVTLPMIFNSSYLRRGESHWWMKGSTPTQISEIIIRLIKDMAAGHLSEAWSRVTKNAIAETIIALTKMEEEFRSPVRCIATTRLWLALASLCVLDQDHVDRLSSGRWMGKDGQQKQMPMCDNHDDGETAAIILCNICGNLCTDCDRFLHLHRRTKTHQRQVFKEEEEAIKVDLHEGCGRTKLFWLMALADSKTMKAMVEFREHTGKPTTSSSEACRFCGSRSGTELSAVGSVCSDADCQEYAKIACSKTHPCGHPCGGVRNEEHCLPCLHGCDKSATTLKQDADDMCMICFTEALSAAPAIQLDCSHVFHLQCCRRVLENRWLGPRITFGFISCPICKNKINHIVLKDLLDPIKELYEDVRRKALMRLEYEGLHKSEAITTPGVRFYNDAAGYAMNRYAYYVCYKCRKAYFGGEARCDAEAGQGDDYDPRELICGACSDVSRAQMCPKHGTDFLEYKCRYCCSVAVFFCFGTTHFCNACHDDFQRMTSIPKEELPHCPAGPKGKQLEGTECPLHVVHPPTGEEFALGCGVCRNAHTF

| effect of a mutation on the interaction | Variant |
| --- | --- |
| disrupting interaction | R1104A |
| disrupting interaction | N1105E |

Variants of: B1
Conditions: with mycb2_mouse Mycbp2, Q7TPH6
Remark: another data set of the same source

| effect of a mutation on the interaction | Variant |
| --- | --- |
| decreasing interaction | R1104A |
